First the molecules themselves.
B1: NBS1-3 (VHH)
VHH: QVQLVESGGGLVQPGASLRLSCAASGRTFSSTGMGWFRQAPGKEREFVAAISGDGDTTYYADSVKGRFTISRDNAKNTVYLQMNSLKPWDTAVYYCASTRFTWGLYSDFVNSYEYDAWGQGTPVTVSS
notes: also called nano antibody NBS1-3
B2: NBS1-57 (VHH)
VHH: QVQLVESGGGLVQPGASLRLFCVASGRTFSSTGMGWFRQAPGKEREFVAAISGPGDTTYYVDSVKGRFTISRDNAKNTVYLQMNSLKPEDTAVYYCASAGFTWGLYSDFVNSYEYNYWGQGTPVTVSS
notes: also called nano antibody NBS1-57
B3: NBS1-10 (VHH)
VHH: QVQLVESGGGLVQPGGSLRLSCAASGRTFSSTGMGWFRQGPGKEREFVAAISGDGDTTYYADSVKGRFTISRDNAKNTVYLQMNSLKPEDTAVYYCASARFTWGLYSDFVNSYEYDAWGQGTPVTVSS
notes: also called nano antibody NBS1-10
B4: NBS1-2 (VHH)
VHH: QVQLVESGGGLVQAGDSLRLACAATGRTLSNYIMGWFRQAPGKEPLFVAAISRSGVITKYADSVEGRFTISRDNAKNTAYLQMTSLEPEDTAVYYCAASSSKYMATREYDYWGQGTQVTVSS
notes: also called XBS1-2; nano antibody NBS1-2

One may read the Kd as the equilibrium constant for the complex coming apart. As usually defined, the koff is a measure of how fast the partners let go of each other. A higher koff goes with a short-lived complex. Usually kon stands for the second-order rate constant of association.

This assay has as its target antigen RBD-FC protein (SARS-CoV-2 RBD protein) (SARS-CoV-2, UniProt P0DTC2 319-541). The assay is described as follows: thin film interference (Gator), RBD-Fc captured on anti-human Fc probe, nano antibody in solution. As to the method:
In this example, an instrument Gator® probe life was used to detect an intermolecular interaction with a thin film interference method. A sample to be detected with a concentration not less than 80% and an antigen RBD-FC protein (SARS-CoV-2 RBD protein) with a concentration not less than 90% were prepared.
2. Experimental Method: 1) Detection method of NBS1-2 sample: the nano antibody was detected with an immobilized antigen RBD-Fc (100 nM); the probe type used was the anti-human Fc antibody; and the NBS1-2 was diluted to 60,000 nM, 30,000 nM, 15,000 nM, 7,500 nM, 3,750 nM, 1,875 nM, 937.5 nM, and 0 nM with the Q buffer. 2) Detection method of NBS1-3 sample: the nano antibody was detected with the immobilized antigen RBD-Fc (100 nM); the probe type used was the anti-human Fc antibody; and the NBS1-3 was diluted to 25 nM, 12.5 nM, 6.25 nM, 3.18 nM, 1.56 nM, 0.78 nM, and 0 nM with the Q buffer. 3) Detection method of NBS1-10 sample: the nano antibody was detected with the immobilized antigen RBD-Fc (100 nM); the probe type used was the anti-human Fc antibody; and the NBS1-10 was diluted to 25 nM, 12.5 nM, 6.25 nM, 3.18 nM, 1.56 nM, 0.78 nM, and 0 nM with the Q buffer.
4) Detection method of NBS1-57 sample: the nano antibody was detected with the immobilized antigen RBD-Fc (100 nM); the probe type used was the anti-human Fc antibody; and the NBS1-57 was diluted to 25 nM, 12.5 nM, 6.25 nM, 3.18 nM, 1.56 nM, 0.78 nM, and 0 nM with the Q buffer.
B1 registered a Kd of 0.0301 nM, a koff of 7.16e-05 s⁻¹ and a kon of 2.38e+06 M⁻¹ s⁻¹.
As to B2, the Kd came to 1.29 nM, the koff turned out to be 0.00491 s⁻¹ and the kon is 3.8e+06 M⁻¹ s⁻¹.
The corresponding values for B3 are 1.31 nM, 0.00311 s⁻¹ and 2.37e+06 M⁻¹ s⁻¹.
The corresponding values for B4 are 1410 nM, 0.00127 s⁻¹ and 895 M⁻¹ s⁻¹.

Source of the values: US12398199 (SYSVAX, dated 2025).
